Test [1] deals with human PD-L1 His (human). Put plainly: SPR, 25C.
Test [2] has as its target human PD-L1 His (human). Description: SPR, 37C.
In another test the target is T1, TIGIT (human, UniProt Q495A1).
T1 chain: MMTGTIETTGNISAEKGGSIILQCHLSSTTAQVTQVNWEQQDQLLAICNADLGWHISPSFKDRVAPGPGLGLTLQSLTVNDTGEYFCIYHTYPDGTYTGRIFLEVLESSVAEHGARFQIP
Description: SPR. (SPR reads the build-up and loss of mass on a sensor chip optically.)

A further test concerns the target cyno PD-L1 FLAG (cynomolgus). Put plainly: SPR, 37C.
The target of test [3] is human PD-L1 His (human). Put plainly: SPR.
Test [4] addresses human PD-L1 His (human). Put plainly: ELISA, competition with CD80. In general terms: In an ELISA, binding on a coated surface is turned into a signal by an enzyme label.
Test [5] deals with human PD-L1 His (human). Put plainly: SPR, 25C. This is another data set of the same source.
In test [6] the target is human PD-L1 His (human). Put plainly: ELISA, competition with PD-1.
Test [7] addresses human PD-L1 His (human). Description: ELISA, competition with PD-1. The source holds these as a separate data set.

Drawing on US9567399 (dated 2017), this text covers Kd, binding result and IC50 for twelve molecules.

Chain of cyno PD-L1 FLAG (cynomolgus) (chain, as listed by the source): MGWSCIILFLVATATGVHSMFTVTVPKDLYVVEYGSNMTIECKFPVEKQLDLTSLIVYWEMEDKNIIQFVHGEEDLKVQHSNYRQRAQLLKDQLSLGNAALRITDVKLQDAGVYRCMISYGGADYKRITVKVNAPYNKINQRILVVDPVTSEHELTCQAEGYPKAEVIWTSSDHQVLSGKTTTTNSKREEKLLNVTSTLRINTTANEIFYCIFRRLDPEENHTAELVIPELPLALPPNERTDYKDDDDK

B1: 1D05 VH V to A (antibody, V domains shown)
VH: EVQLVESGGGLVQPGRSLRLSCAASGFTFDDYAMHWVRQAPGKGLEWVSGISWIRTGIGYADSVKGRFTIFRDNAKNSLYLQMNSLRAEDTALYYCAKDMKGSGTYGGWFDTWGQGTLVTVSS
VL: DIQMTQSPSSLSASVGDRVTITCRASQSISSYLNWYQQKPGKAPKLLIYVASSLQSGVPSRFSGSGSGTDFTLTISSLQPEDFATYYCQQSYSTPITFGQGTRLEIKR
One may read the Kd as the free concentration of one partner at which half of the binding sites on the other are occupied at equilibrium, for simple one-to-one binding. A low value points to tighter binding. In turn, B1 came in with a Kd in the test with human PD-L1 His [1] of 330 pM.

B2: 1D05 (antibody)
chain 1: EVQLVESGGGLVQPGRSLRLSCAASGFTFDDYAMHWVRQVPGKGLEWVSGISWIRTGIGYADSVKGRFTIFRDNAKNSLYLQMNSLRAEDTALYYCAKDMKGSGTYGGWFDTWGQGTLVTVSS
chain 2: not shown
For the molecule B2, the Kd with human PD-L1 His [2] worked out at 420 pM; with cyno PD-L1 FLAG it was 430 pM; with human PD-L1 His [3], 350 pM. In the test with TIGIT, the binding result is given as “no binding”.

B3: 1D05 VH V to A, VL V to A (antibody, V domains shown)
VH: EVQLVESGGGLVQPGRSLRLSCAASGFTFDDYAMHWVRQAPGKGLEWVSGISWIRTGIGYADSVKGRFTIFRDNAKNSLYLQMNSLRAEDTALYYCAKDMKGSGTYGGWFDTWGQGTLVTVSS
VL: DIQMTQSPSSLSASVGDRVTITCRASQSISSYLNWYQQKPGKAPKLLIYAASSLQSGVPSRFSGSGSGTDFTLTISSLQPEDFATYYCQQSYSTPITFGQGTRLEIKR
For B3, in the test with human PD-L1 His [1], the Kd was 2800 pM.

B4: 1D05 VH V to A and F to S (antibody, V domains shown)
VH: EVQLVESGGGLVQPGRSLRLSCAASGFTFDDYAMHWVRQAPGKGLEWVSGISWIRTGIGYADSVKGRFTISRDNAKNSLYLQMNSLRAEDTALYYCAKDMKGSGTYGGWFDTWGQGTLVTVSS
VL: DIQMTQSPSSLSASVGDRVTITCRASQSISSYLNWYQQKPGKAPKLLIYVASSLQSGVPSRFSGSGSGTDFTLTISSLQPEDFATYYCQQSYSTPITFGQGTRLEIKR
As for B4, the Kd in the test with human PD-L1 His [1] is 230 pM.

B5: 1D05 VH F to S (antibody, V domains shown)
VH: EVQLVESGGGLVQPGRSLRLSCAASGFTFDDYAMHWVRQVPGKGLEWVSGISWIRTGIGYADSVKGRFTISRDNAKNSLYLQMNSLRAEDTALYYCAKDMKGSGTYGGWFDTWGQGTLVTVSS
VL: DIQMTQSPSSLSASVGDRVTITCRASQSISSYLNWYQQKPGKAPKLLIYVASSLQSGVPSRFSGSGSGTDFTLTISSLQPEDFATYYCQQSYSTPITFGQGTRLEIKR
Take B5: binding in the test with human PD-L1 His [1] was put at a Kd of 230 pM.

B6: 1D05 D9-7 (antibody)
chain 1: EVQLVESGGGLVQPGRSLRLSCAASGFTFDDYAMHWVRQVPGKGLEWVSGISWIRTGIGYADSVKGRFTIFRDNAKNSLYLQMNSLRAEDTALYYCAKDMKGSGTYGGWFDTWGQGTLVTVSS
chain 2: not shown
One may read the IC50 as the midpoint of a concentration-inhibition curve. B6 came in with an IC50 with human PD-L1 His [4] of 700 pM. Further, in the test with human PD-L1 His [5], binding was put at a Kd of 200 pM.

B7: Bispecific 1, PD-L1 arm (antibody)
chain 1: EVQLVESGGGLVQPGRSLRLSCAASGFTFDDYAMHWVRQVPGKGLEWVSGISWIRTGIGYADSVKGRFTIFRDNAKNSLYLQMNSLRAEDTALYYCAKDMKGSGTYGGWFDTWGQGTLVTVSS
chain 2: not shown
Regarding B7, in the test with human PD-L1 His [3], the Kd turned out to be 270 pM. This lies in the sub-nanomolar range.

B8: 1D05 IC46 (D1-9) (antibody)
chain 1: EVQLVESGGGLVQPGRSLRLSCAASGFTFDDYAMHWVRQVPGKGLEWVSGISWIRTGIGYADSVKGRFTIFRDNAKNSLYLQMNSLRAEDTALYYCAKDMKGSGTYGGWFDTWGQGTLVTVSS
chain 2: not shown
Consider B8, for which the IC50 with human PD-L1 His [6] came to 1750 pM; with human PD-L1 His [4] it was 1070 pM. Moreover, the affinity in the test with human PD-L1 His [5], expressed as Kd, was 195 pM.

B9: 1D05 IC45 (D5-9) (antibody)
chain 1: EVQLVESGGGLVQPGRSLRLSCAASGFTFDDYAMHWVRQVPGKGLEWVSGISWIRTGIGYADSVKGRFTIFRDNAKNSLYLQMNSLRAEDTALYYCAKDMKGSGTYGGWFDTWGQGTLVTVSS
chain 2: not shown
Turning to B9, the affinity with human PD-L1 His [5], expressed as Kd, was 203 pM. That is a sub-nanomolar value.

B10: Bispecific 2, PD-L1 arm (antibody)
chain 1: EVQLVESGGGLVQPGRSLRLSCAASGFTFDDYAMHWVRQVPGKGLEWVSGISWIRTGIGYADSVKGRFTIFRDNAKNSLYLQMNSLRAEDTALYYCAKDMKGSGTYGGWFDTWGQGTLVTVSS
chain 2: not shown
In the test with human PD-L1 His [3], B10 gave a Kd of 210 pM. That is a sub-nanomolar value.

B11: 1D05 IC64 (D5-7) (antibody)
chain 1: EVQLVESGGGLVQPGRSLRLSCAASGFTFDDYAMHWVRQVPGKGLEWVSGISWIRTGIGYADSVKGRFTIFRDNAKNSLYLQMNSLRAEDTALYYCAKDMKGSGTYGGWFDTWGQGTLVTVSS
chain 2: not shown
In the case of B11, binding in the test with human PD-L1 His [5] was characterised by a dissociation constant (Kd) of 214 pM. This counts as sub-nanomolar.

B12: 84G09 (antibody, V domains shown)
VH: EVQLVESGGGLVQPGRSLRLSCAASGFTFDDYAMHWVRQTPGKGLEWVSGISWKSNIIGYADSVKGRFTISRDNAKNSLYLQMNSLRAEDTALYYCARDITGSGSYGWFDPWGQGTLVTVSS
VL: DIQMTQSPSSLSASVGDRVTITCRASQSISSYLNWYQQKPGKAPKPLIYVASSLQSGVPSSFSGSGSGTDFTLTISSLQPEDFATYYCQQSYSNPITFGQGTRLEIK
For B12, the figures for the Kd with human PD-L1 His [2] and with cyno PD-L1 FLAG were 430 pM and 520 pM, respectively. Moreover, the half-maximal inhibitory concentration (IC50) with human PD-L1 His [7] is 7900 pM.
